The target in the assay is T1, CsTx-13 (Cupiennius salei, UniProt P83919).
T1 chain 1: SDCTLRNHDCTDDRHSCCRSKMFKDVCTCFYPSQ
T1 chain 2: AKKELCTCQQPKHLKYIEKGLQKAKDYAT
The assay can be described thus: microscale thermophoresis. A general note: Microscale thermophoresis detects binding through changes in fluorescence in a small temperature gradient.

B1: CsTx-9 (protein)
chain: KDDKNCIPKHHECTNDKKNCCKKGLTKMKCKCFTVADAKGATSERCACDSSLLQKFGFTGLHIIKGLF
For the molecule B1, the affinity, expressed as Kd, was 370 nM.

B2: CsTx-1 (protein)
chain: SCIPKHEECTNDKHNCCRKGLFKLKCQCSTFDDESGQPTERCACGRPMGHQAIETGLNIFRGLFKGKKKNKKTK
With B2, the Kd (usually the constant that tells how readily two partners part at equilibrium) came to 430 nM.

These data come from article PMC7232441 (2020).
